In article PMC3399080:

Key:
[1] = molecular target: Recombinant human insulin oxidized by metal-catalyzed oxidation (copper(II)/ascorbate) (human); assay: SEC; insulin oxidized in 50 mM sodium citrate, pH 3.0, 3 h at room temperature; same column and dissociating mobile phase; UV 276 nm; covalent aggregates only
[2] = molecular target: Recombinant human insulin oxidized by metal-catalyzed oxidation (copper(II)/ascorbate) (human); assay: SEC; insulin oxidized in 50 mM PB, pH 7.4, 3 h at room temperature; Insulin HMWP column, mobile phase 1 g/L L-arginine in water/acetonitrile/glacial acetic acid 65:20:15, which dissociates non-covalent aggregates; UV 276 nm; covalent dimers and oligomers only
[3] = molecular target: Recombinant human insulin oxidized by metal-catalyzed oxidation (copper(II)/ascorbate) (human); assay: SEC; insulin oxidized in 250 mM ammonium bicarbonate, pH 8.0, 3 h at room temperature (ammonia competes for Michael addition); same column and dissociating mobile phase; UV 276 nm; covalent aggregates only
[4] = molecular target: Recombinant human insulin oxidized by metal-catalyzed oxidation (copper(II)/ascorbate) (human); assay: SEC; insulin oxidized in 50 mM sodium citrate, pH 3.0, then exchanged into 50 mM PB, pH 7.4, and left 12 h at room temperature; same column and dissociating mobile phase; UV 276 nm; covalent aggregates only

- %Dimer (covalent) [1]: 0.8%
- %Dimer (covalent) [2]: 18.8%
- %HMWO (covalent high-molecular-weight oligomers) [2]: 6.8%
- %Dimer (covalent) [3]: 3.9%
- %Dimer (covalent) [4]: 9.3%
- %HMWO (covalent high-molecular-weight oligomers) [4]: 1.9%
Substance: Recombinant human insulin oxidized by metal-catalyzed oxidation (copper(II)/ascorbate) (natural protein)
